Laboratory results published in publication PMC6424575.

Target: stand-alone thioesterase (TE) domain of the 6-deoxyerythronolide B synthase (DEBS)
Test: SEC

- stoichiometry N: 2
Substance: stand-alone thioesterase (TE) domain of the 6-deoxyerythronolide B synthase (DEBS) (domain or fragment)
